In the experiment the target is T1, L1 cell adhesion molecule (L1CAM) on the surface of HeLa cells (human, UniProt P32004 20-1257).
T1 construct: whole, on cells; Endogenous L1CAM of HeLa cells ("HeLa cells that highly express human L1CAM"); also called CD171; human L1CAM
Briefly: flow cytometry on HeLa cells, MFI dose-response. On the procedure:
Humanized anti-L1CAM antibodies (Human IgG1-Kappa) are diluted in complete medium, in a four-fold serial dilution, with 7 concentration gradient points.
HeLa cells are cultured in DMEM complete medium (Corning, 10-013-CVR) containing 10% FBS (Gibco, 10099-141) and 100 U/mL penicillin-streptomycin mixture (Thermofisher, 15140122). When the cell coverage in the culture container reaches 80-90%, TrypLE (Thermofisher, 12604-013) is used to digest the HeLa cells from the culture container, and they are seeded in a 96-well plate (AXYGEN, P-96-450V-C) at a density of 2.2×10⁶ cells/ml, with 100,000 cells (45 μL complete medium) per well. Then, 5 μL of the antibody dilution is added to each well, mixed gently, and the 96-well plate is incubated at 4° C. for 1 hour. Then, 150 μL of PBS (Corning, 21-040-CVC) containing 2% FBS is added to each well, centrifuged at 1400 rpm for 4 minutes, the supernatant is removed, and washed once again. Then, 50 μL of Alexa Fluor 647-labeled goat anti-human fluorescent secondary antibody (Jacksonimmuno, 109-605-088) diluted at 1:800 is added to each well, and the 96-well plate is incubated at 4° C. for 0.5 hours. The cells are washed twice with PBS solution containing 2% FBS, then resuspended in 120 μL of PBS, and the fluorescent signal on the cell surface is detected using a flow cytometer (BD FACS Celesta), obtaining and the median fluorescence intensity (MFI). A dose-response curve is generated, and the half-maximal effective concentration (EC50) is calculated using non-linear regression with GraphPad software.
For orientation: In flow cytometry, cells or beads pass a laser one at a time.

The EC50 is the concentration needed to bring the measured effect to its halfway point. Low readings indicate a more potent agent, high ones a less potent agent.

T1 sequence (P32004 20-1257): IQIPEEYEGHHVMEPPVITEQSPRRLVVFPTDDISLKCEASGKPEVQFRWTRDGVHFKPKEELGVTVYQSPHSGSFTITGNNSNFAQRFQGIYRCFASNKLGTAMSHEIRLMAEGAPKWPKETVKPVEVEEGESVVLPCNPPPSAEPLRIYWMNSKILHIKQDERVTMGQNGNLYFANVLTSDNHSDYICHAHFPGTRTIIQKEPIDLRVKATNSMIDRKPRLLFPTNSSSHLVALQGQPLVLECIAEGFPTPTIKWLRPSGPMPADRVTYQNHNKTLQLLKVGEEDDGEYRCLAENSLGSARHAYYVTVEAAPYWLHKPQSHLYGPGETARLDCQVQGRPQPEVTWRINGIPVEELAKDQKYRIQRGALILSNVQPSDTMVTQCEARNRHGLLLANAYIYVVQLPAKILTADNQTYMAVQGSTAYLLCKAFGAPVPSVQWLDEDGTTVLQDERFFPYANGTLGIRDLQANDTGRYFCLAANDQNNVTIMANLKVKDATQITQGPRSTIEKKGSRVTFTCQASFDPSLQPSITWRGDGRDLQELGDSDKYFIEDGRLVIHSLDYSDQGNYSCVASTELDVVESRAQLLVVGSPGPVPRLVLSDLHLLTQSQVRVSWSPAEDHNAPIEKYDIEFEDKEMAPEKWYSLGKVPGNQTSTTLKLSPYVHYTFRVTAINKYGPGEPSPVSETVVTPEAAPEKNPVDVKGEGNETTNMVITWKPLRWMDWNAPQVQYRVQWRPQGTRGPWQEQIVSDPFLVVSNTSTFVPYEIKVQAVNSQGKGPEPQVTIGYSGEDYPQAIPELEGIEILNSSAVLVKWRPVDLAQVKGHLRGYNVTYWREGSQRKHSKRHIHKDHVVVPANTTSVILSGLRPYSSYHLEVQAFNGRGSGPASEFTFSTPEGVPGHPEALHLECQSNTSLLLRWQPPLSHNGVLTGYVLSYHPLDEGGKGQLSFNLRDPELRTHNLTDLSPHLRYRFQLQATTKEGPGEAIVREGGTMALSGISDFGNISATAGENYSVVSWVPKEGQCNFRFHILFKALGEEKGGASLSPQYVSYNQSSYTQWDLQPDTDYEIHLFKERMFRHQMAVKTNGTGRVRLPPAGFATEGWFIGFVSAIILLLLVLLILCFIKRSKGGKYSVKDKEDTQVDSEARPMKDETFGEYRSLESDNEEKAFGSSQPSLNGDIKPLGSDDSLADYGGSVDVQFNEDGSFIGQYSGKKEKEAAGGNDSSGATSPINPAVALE

B1: hz26A12C1H4L3 (antibody, human IgG1, kappa, V domains shown)
VH: QVQLVQSGAEVKKPGSSVKVSCKASGYTFTNYWIQWVRQAPGQGLEWIGYINPSTYYSDYNQKFQGRVTLTADKSTSTAYMELSSLRSEDTAVYYCARRQFGLPLFDYWGQGTTVTVSS
VL: DIQMTQSPSSLSASVGDRVTITCRASQDVGTAVAWYQQKPGKVPKLLIYWASTLHSGVPSRFSGSGSGTDFTLTISSLQPEDVATYFCQQYSNYPLTFGGGTKVEIKR
notes: also called humanized anti-L1CAM antibody
B1: the EC50 worked out at 0.738 nM.

B2: hz46F1D5H4L3 (antibody, human IgG1, kappa, V domains shown)
VH: QVQLVQSGAEVKKPGSSVKVSCKASGYTFTRYWIQWVRQAPGQGLEWMGYINPSTGYTDYNQKFQGRVTITADKSTSTAYMELSSLRSEDTAVYYCARRHLGLPLFDYWGQGTTVTVSS
VL: DIQMTQSPSSVSASVGDRVTITCRASQDVGTAVAWYQQKPGKAPKLLIYWASSLHSGVPSRFSGSGSGTDFTLTISSLQPEDFATYFCQQYSNYPLTFGGGTKVEIKR
notes: as for B1
Regarding B2, the EC50 was determined as 1.27 nM.

B3: hz49E10H1H5L6 (antibody, human IgG1, kappa, V domains shown)
VH: DVQLQESGPGLVKPSQTLSLTCTVSGGSISSDYAWNWIRQPPGKGLEWMGYITYSGTTTYNPSLKSRITISRDTSKNQFSLKLSSVTAADTAVYYCARDHYGNYAYFDYWGQGTTVTVSS
VL: DIQMTQSPSSLSASVGDRVTITCRASSSVSFMHWYQQKPGKAPKPWIYASSNLVSGVPSRFSGSGSGTDFTLTISSLQPEDFATYYCQQWSSNPSTFGGGTKVEIKR
notes: as for B1
With B3, the EC50 is 0.404 nM.

B4: hz103E9B3H5L5 (antibody, human IgG1, kappa, V domains shown)
VH: EVQLVQSGAEVKKPGASVKVSCKASGYTFTSYTMHWVRQAPGQGLEWMGDINPNYGGTSYNEKFKDRVTMTTDTSTSTAYMELRSLRSDDTAVYYCAREGATGTWYFDVWGQGTTVTVSS
VL: DIQMTQSPSSLSASVGDRVTITCSASSSVSFMFWYQQKPGKAPKPLIYLTSNLASGVPSRFSGSGSGTDFTLTISSLQPEDFATYYCQQWRSNPPTFGGGTKVEIKR
notes: as for B1
As for B4, a half-maximal effect (EC50) was put at 1.68 nM.

B5: hz49E10H1H5L7 (antibody, human IgG1, kappa, V domains shown)
VH: DVQLQESGPGLVKPSQTLSLTCTVSGGSISSDYAWNWIRQPPGKGLEWMGYITYSGTTTYNPSLKSRITISRDTSKNQFSLKLSSVTAADTAVYYCARDHYGNYAYFDYWGQGTTVTVSS
VL: QIQMTQSPSSLSASVGDRVTITCRASSSVSFMHWYQQKPGKAPKPWIYASSNLVSGVPSRFSGSGSGTDYTLTISSLQPEDFATYYCQQWSSNPSTFGGGTKVEIKR
notes: as for B1
B5: the half-maximal effective concentration (EC50) stood at 0.377 nM.

B6: hz103E9B3H6L5 (antibody, human IgG1, kappa, V domains shown)
VH: EVQLVQSGAEVKKPGASVKVSCKASGYTFTSYTMHWVRQAPGQGLEWMGDINPNYGGTSYNEKFKDRATMTTDTSTSTAYMELRSLRSDDTAVYYCAREGATGTWYFDVWGQGTTVTVSS
VL: DIQMTQSPSSLSASVGDRVTITCSASSSVSFMFWYQQKPGKAPKPLIYLTSNLASGVPSRFSGSGSGTDFTLTISSLQPEDFATYYCQQWRSNPPTFGGGTKVEIKR
notes: as for B1
The molecule B6 came in with an EC50 of 1.48 nM.

The record behind these values is patent publication US20260166166A1 (CURON BIOPHARMACEUTICAL SHANGHAI, published 2026).
